The target of the assay is T1, human TF-Fc (Homo sapiens, UniProt P13726).
T1 construct: tissue factor (TF; CD142), human; Construct limits may be in Supplementary file1; also called human tissue factor Fc fusion protein; HuTF; source: Expi293F, transfected (pcDNA3.1(-), Genscript), purified from supernatant (Protein A; for SPR also SEC on Superdex 200 after 2 mM DTT)
Put plainly: SPR; human TF-Fc amine-coupled to a CM5 chip (target 500 RU); scFvFc flowed over at 18.75-3.125 nM in PBS-EP (0.01% Tween20, 300 mM NaCl PBS, pH 7.4), 30 µL/min, contact 180 s, dissociation 600 s; 25 °C; Biacore X100; global fit, 1:1 binding model. The following applies: both partners purified. Background: SPR reads the build-up and loss of mass on a sensor chip optically.

This is an account of results in paper PMC11303627 (Cancer Immunology, Immunotherapy : CII, 2024).

As usually defined, the Kd is the free concentration of one partner at which half of the binding sites on the other are occupied at equilibrium, for simple one-to-one binding. Read a high Kd as a looser complex.

T1 sequence (P13726 33-251): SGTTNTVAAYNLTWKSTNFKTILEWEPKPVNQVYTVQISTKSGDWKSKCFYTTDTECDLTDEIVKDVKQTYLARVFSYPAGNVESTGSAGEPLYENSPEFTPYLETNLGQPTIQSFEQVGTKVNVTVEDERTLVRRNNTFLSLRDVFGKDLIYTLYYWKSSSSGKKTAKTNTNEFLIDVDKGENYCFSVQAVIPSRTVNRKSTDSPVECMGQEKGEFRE

B1: hATR-5 scFvFc (scFv, V domains shown)
VH: QVQLLESGAVLARPGTSVKISCKASGFNIKDYYMHWVKQRPGQGLEWIGGNDPANGHSMYDPKFQGRVTITADTSTSTVFMELSSLRSEDTAVYYCARDSGYAMDYWGQGTLVTVSS
VL: DIQMTQSPSSLSASVGDRVTITCKASQDIKSFLSWYQQKPEKAPKSLIYYATSLADGVPSRFSGSGSGTDYTLTISSLQPEDFATYYCLQHGESPYTFGGGTKVEIK
notes: source: Expi293F, transfected (pcDNA3.1(-)), purified from supernatant (Protein A, then SEC on Superdex 200 after 2 mM DTT)
B1 had an equilibrium dissociation constant (Kd) of 460 pM. That is a sub-nanomolar value.

B2: TF8-5G9 anti-TF scFvFc (scFv, V domains shown)
VH: EIQLQQSGAELVRPGALVKLSCKASGFNIKDYYMHWVKQRPEQGLEWIGLIDPENGNTIYDPKFQGKASITADTSSNTAYLQLSSLTSEDTAVYYCARDNSYYFDYWGQGTTLTVSS
VL: DIKMTQSPSSMYASLGERVTITCKASQDIRKYLNWYQQKPWKSPKTLIYYATSLADGVPSRFSGSGSGQDYSLTISSLESDDTATYYCLQHGESPYTFGGGTKLEIN
notes: also called TF8-5G9 scFvFc; TF85G9 scFvFc; source: Expi293F, transfected (pcDNA3.1(-)), purified from supernatant (Protein A, then SEC on Superdex 200 after 2 mM DTT)
Turning to B2, the Kd came to 370 pM.
